Measured values as given in paper PMC12856669 (2026).

Key:
[1] = biological target: NpF2164g6 (1038–1206), holo-protein, not biotinylated
[2] = biological target: NpF2164g6 (1038–1206), holo-protein, not biotinylated; assay: other fluorescence titration; Pr (dark) state fluorescence of NpF2164g6 against binder concentration, 1:1 binding model, gives Kd,D; 25 °C, PBS pH 7.2
[3] = biological target: NpF2164g6 (1038–1206), holo-protein, not biotinylated; assay: thermal reversion kinetics (UV-vis); observed thermal reversion rate of NpF2164g6 against binder concentration, gives Kd,L of the light (Pg) state; 25 °C, PBS pH 7.2
[4] = biological target: T1, NpF2164g6 (1038–1206), holo-protein, not biotinylated (phycocyanobilin (PCB) chromophore bound); assay: dark state (Pr), thermal reversion
T1 chain: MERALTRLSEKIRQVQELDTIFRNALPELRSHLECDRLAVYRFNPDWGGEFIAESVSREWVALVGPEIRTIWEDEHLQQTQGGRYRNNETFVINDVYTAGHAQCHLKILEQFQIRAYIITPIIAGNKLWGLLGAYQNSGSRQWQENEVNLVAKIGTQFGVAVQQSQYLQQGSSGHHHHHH

[5] = biological target: T1, NpF2164g6 (1038–1206), holo-protein, …; assay: Pr-state (dark), from thermal reversion rate
[6] = biological target: Biotinylated NpF2164g6 (1038–1206), Avi-tagged holo-protein; assay: ELISA; purified biotinylated NpF2164g6 immobilised, purified FLAG-tagged binders, red-light conditions (Pg state)
[7] = biological target: Biotinylated NpF2164g6 (1038–1206), Avi-tagged holo-protein; assay: ELISA; purified biotinylated NpF2164g6 immobilised, purified FLAG-tagged binders, dark-adapted (Pr state)
[8] = biological target: T2, NpF2164g6 (1052–1206), N-terminal truncation (phycocyanobilin (PCB) chromophore linked to Cys90 (construct numbering); 15N label for NMR); assay: light state (Pg), thermal reversion
T2 chain: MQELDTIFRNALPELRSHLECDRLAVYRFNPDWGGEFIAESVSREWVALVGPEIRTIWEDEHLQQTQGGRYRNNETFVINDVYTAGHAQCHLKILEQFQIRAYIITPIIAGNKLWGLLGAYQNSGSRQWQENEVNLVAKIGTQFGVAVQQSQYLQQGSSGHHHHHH

[9] = biological target: T2, NpF2164g6 (1052–1206), N-terminal …; assay: dark state (Pr), thermal reversion

Biotinylated NpF2164g6 (1038–1206), Avi-tagged holo-protein, sequence (main, as listed by the source): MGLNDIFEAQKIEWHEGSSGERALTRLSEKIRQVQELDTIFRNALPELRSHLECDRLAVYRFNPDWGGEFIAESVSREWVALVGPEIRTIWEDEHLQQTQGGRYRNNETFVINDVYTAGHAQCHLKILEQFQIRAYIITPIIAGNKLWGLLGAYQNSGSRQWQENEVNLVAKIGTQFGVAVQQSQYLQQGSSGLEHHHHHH

B1: BNp-Red-1.2 (designed binder)
chain: MKLATIDQWLLKNAKEDAIAELKKAGITADAYFNWINNAWDVDYVNYRKNKILKAHAGSSGLEHHHHHH
- SEAP reporter activity in stably transfected CHO-K1 cells (NpF2164g6-FUS-VP16-NLS and E-BNp-Red-1.2-NLS), dark against 660 nm illumination for 24 h, bulk cell culture [1]: 24 fold
- SEAP reporter activity in stably transfected CHO-K1 cells (NpF2164g6-FUS-VP16-NLS and E-BNp-Red-1.2-NLS), dark against 660 nm illumination for 24 h, individual clones [1]: > 30 fold
- Kd [2]: 3 µM
- Kd [3]: > 30 µM
- Kd [4]: 3.7 µM
- Kd [5]: 3.7 µM
- Kd [6]: > 100 µM
- Kd [7]: 0.6 µM

B2: BNp-Red-1.0 (binder of NpF2164g6-Red state) (designed binder)
chain: MKLATIDQWLLKNAKEDAIAELKKAGITSDAYFNLINDAFDVDYVNYRKNKILKAHAGSSGLEHHHHHH
- Kd [2]: 7 µM
- Kd [3]: > 200 µM
- Kd [8]: > 180 µM
- Kd [4]: 7.9 µM
- Kd [5]: 7.9 µM
- Kd [9]: 7 µM
